In the nanobody polyreactivity screen of Harvey et al. (2022):

Assay: yeast display, Sf9 membrane polyspecificity reagent, FACS + sequencing; frameworks hold sequencing errors
Outline: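 Using colony PCR, genes from sorted yeast display clones were amplified, then sequenced on MiSeq at 2 × 250 and filtered by CDR length. The clones had been stained with 10% biotinylated, detergent-solubilized Sf9 membrane reagent for 1 hour at 4 °C and sorted by FACS into low and high (top ~1%) gates on anti-HA and streptavidin fluorescence. Polyreactivity labels come from the gate of origin.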

Sequence	polyreactivity (PSR sort gate)
QVQLVESGGGLVQAGGSLRLSCAASGFTFYKYAMGWYRQAPGKERELVAAINWSGGSTYYADSVKGRFTISRDNAKNTVYLQMNSLKPEDTAVYYCAAERGTTYAYDYWGQGTQVTVSS	high polyreactivity
QVQLVESGGGLVQAGGSLRLSCAASGSIFLINAMGWYRQAPGKERELVAAISWSGGSTSYADSVKGRFTISRDNAKNTVYFQMNSLKPEDTAVFYCAAESISYRPGYDYWRQGTQVTVSS	low polyreactivity
QVQLVESGGGLLQAGGSLRLSCAATGITYDYYDMGWYRQAPGKERELVAAIRWSGTSKYYADSVKGRFTISRDNANNTVYIQMNSLKTEDSAVYYCAALAVGNDYRRYGYWGQGTQVTVSS	high polyreactivity
QVQLVESGGGLVQAGGSLRLSCAASGFTFDIYAMGWYRQAPGKERELVATISFTGDTTSYADSVKGRFTISRHNAKNTVYLQMNSLKPEDTAVYYCAADGSYPLSVGRENLHYAEFDYWGQGTQVTVSS	low polyreactivity
QVQLVESGGGLVNAGGSLRLSCAASGRTFRNYAMGWYRQAPGKERELVAANSSGGSTNYADSVKGRFTISRDNAKNTVYLQMNSLKPEDTAVYFCAARQRAYYGPGFDYWGQGTQVTVSS	low polyreactivity
QVQLVESGGGLVQAGGSLRLSCAAYGRILYYYAMGWYRQAPGKETELVAAITETSGSTYYADSVKGRFTISRDNAKTTVYLQMNSLHPEDTAVYYCAASSTRGHYTAYDYWGQGTHVTVSS	low polyreactivity
QVQLVESGGGLVQAGGSLRLSCAASGRTFYSNAMGWYRQAPGKERELVATITLSGGSTDYADSVKGRFTISRDNAKNTVYLQMNSLKPEDTAVYYCNADTDVHLIMGYWGQGTQVTVSS	low polyreactivity
QVQLVESGGGLVQAGGSLRLSCAASGRIFGKYVMGWYRQAPGKERELVAAISRSGGSTSYADSVKGRFTISRDNAKNTVYLQMNSLKPEDTAVYYCAASPAGYLAPRGYYWGQGTQVTVSS	high polyreactivity
QVQLVESGGGLVQAGGSLRLSCAASGFTFGRNAMGWYRQAPGKERELVAAISRGGSTYYADSVKGRFTISRDNAKNTVYLQMNSLKPEDTAVYYCAAETFLKPQYFKKFGYWGQGTQVTVSS	high polyreactivity
QVQLVESGGGLVQAGGSLRLSCAASGSTFGPYVMGGYRQAPGKERELVAVISGGSTDYADSVKGRFTISRDNAKNTVYLQMNSLKPEDTAVYYCNAEYYFYLSPTVYLYDYWGQGTQVTVSS	high polyreactivity
QVQLVESGGGLVQAAGSLRLSCDASGRIFAYYAMGWYRQAPGKERELVAAISRSGVSTYYADSVKGRFTISRDNAKNTVYLQMNSLKPEDTAVYYCAARWRSGFTSGDYWGQGTQVTVSS	low polyreactivity
QVQLVESGGGLVQAGGSLRLSCAASGSTFAYNTMGWYRQAPGKERELVAAISQRGGSTYADTVKGRFTISRDNAKNTVYLQMNSLKPEENAVYYWAADGYTYKFDYWGQGTQVTVSS	low polyreactivity
QVQLVESGGGLVQAGGSLRLSCAASGRIFTYNAMGWYRQAPGKERELVAAISTRGGTTRYADSVKGRFTISRDNAKNTVYLQMNSLKPEDTAVYYCNAVSRGSRWDGLVRLDYWGQGTQVTVSS	high polyreactivity
QVQLVESGGGLVQAGGSLRLSCAASGITFDGYAMGWYRQAPGKESELVAGISWSGARSYYADSVKGRFTISRDNAKYTVYLHMNSLKPEDTAVYYCNKVSLRNHGGYDYWGQGTQVTVSS	high polyreactivity
QVQLVESGGGLVQAGGSLRLSCAASGNTFFIYAMGWYRPAPGKERELVAAITYSGGGTYYADSVKGRFTISRDNAKNTVYLQMYSLKPDDTAVYYCAADFYTGWSYIYDYWGHGTQVTVSS	high polyreactivity
QVQLQESGGGLVQAGGSLRLSCAASGTFSPLPAMGWYRQAPGKERECVAGNDTGAITNYADSVKGRFTISRDNAKNTVYLQMNSLKPDDTAVYYCAVFPAAYVYYVRYYTYWGQGTQVTVCS	low polyreactivity

Sequence	polyreactivity (PSR sort gate)
QGQLVESGGGLVQAGGSLRLSCAASGFTFTSNAMGWYRQAPGQERELVAVISTRGGSTFYADSGKGRFTISRDNAKNTVYLQMNSLKPEDTAVYYCAADSTDYRWTAYYWGQGTQVTVSS	high polyreactivity
QVQLVESGGGLVQAGGSLRLSCAASGRIFTSNTMGWYRPAPGKERELVAAITSSGGSMYYADSVKGRFTISRDNAKNTVYIQMNSLKPEDTAVYYCAARNYFWGQGTQVTVSS	low polyreactivity
QGQLVESGGGLVQAGGSLRLSCPASGRTFYGYAMGWYRQAPGKERELVAAITSSGGSTYYADSVKGRFTISRDHAKNTVYLQMNSLIPEDTAVYYCAAPSSRGQGRNFDYWGQGSQVTVSS	high polyreactivity
QVQLVESGGGLVQAGGSLRLSCAASGRTFTLYTMGWYRQAPGKERELVAAIRYSGGSTYYADSVKGRFTISRDNAKNTVYLHMNSLKPEDTAVYYCAARSYYYGFLYRYDYWGQGTQVTVSS	low polyreactivity
QVQLVESGGGLVQAGGSLRLSCAASGSTFFPYAMGWYRQAPGKVRELVAAIRWSGGRTYYADSVKGRFTISRDNAKNTVFLQMNSLNPEDTAVYYCAAYKYLDYDYGGQGTQVTVSS	high polyreactivity
QVQLVESGGGLVQAGGSLRLSCAATGMIYERNAMGWYRQAPGKERELVAAITRSGSRTYYADSVKGRFTISRDNAKNTVYLQMNSLKPEDTAVYYCAKRSGYRAHYGYWGQGTQVTVSS	high polyreactivity
QVQLVESGGGLVQAGGSLRLSCAASGFIFSKNAMGWSRQAPGKERELVAAISYSGGSTYYADSVKGRFTISRDNAKNTVYLQMNSLKPEDTAVNYCAAGGIYAPSSEYDSWGQGTQVTVSS	low polyreactivity
QVQLVESGGGLVQAGGSLRLSCAASGSTFYYYAMGWYRQAPGKERELVATISSGSSTNYADSVKGRFTISRDNAKNTVYLQMNSLKPEDTAVYYCATDGDPAYPEMEYWGQGTQVTVSS	low polyreactivity
QVQLVESGGGLVQAGGSLRLSCAASGLTFAYYAMGWYRQAPGKERELVAVISSAGSTYYADSVKGRFTISRDNAKNTVYLQMNSLNPEDTAVYYCAARAPSSISQTRGMYYWGQGTQVTVSS	high polyreactivity
QVQLVESGGGLVQAGGSLRVSCAASGFTFYRYAMGWYRQAPGKERELVAAITWSGGSTYYADSVKGRFTISRDNAKNTVYLQMNSLKPEDTAVYYCAADIYDGGFDYWGQGTQVTVSS	low polyreactivity
QVQLVESGGGLVQAGGSLRLSCAASGFIFERNAMGWYRQAPGKERELVAGISNNGGSTYYADSVKGRFTISRDNAKNTVYLQMNSLKPEDTAVYYCARDPNDDNSFPYDYWGQGTQVTVSS	low polyreactivity
QVQLVESGGGIVQAGGRLRLSCAASGSILAGYALGWYRQSPGKERELVAAISESGGNTYYADSVKGRFTISRDNAKNTVYLQMNSLKPEDTAVYYCAADLGYGPLRELEYWGQGTQVTVSS	low polyreactivity
QVQLVESGGGLVQAGGSLRLSCAASGFTFVSYAMGWYRQATGKERELVAVIDNSDGDTYYADSVKGRFTISRDNAKNTVYLQMNSLKPEDTAVYYCAADAVIEWTDWYSAWWYYYWGQGTQVTVSS	low polyreactivity
QVQLVESGGGLVQAGGSLRLSCAASGSTYRIYAMGWYRQAPGKERELVAAITRSGGSTYYADSVKGRFTISRDNAKNTVYLQMNSMKPEDTAVYYCNRRGAYPAKYDYWGQGTQVTVSS	high polyreactivity
QVQLVESGGGLVQAGGSLRLSCAASGITFGPYAMGWYRQAPGKERELVATISSSGGSTYYADSVKGRFTISRDNAKNTVYLQMNSLIPEDTAVYYCNAGYAPYLGAYDYWGQGTQVTVSS	low polyreactivity
QVQLVESGGGLVQAGGSLRLSCAASGSTFGIYAMGWYRQAPGKERELVATISWGGGDTYYADSVKGRFTISRDNAKNTVYLQMNSLKPEDTAVYYCAADLWYGKTSGSTTPDPYDYWGQGTQVTVSS	low polyreactivity
